Results as given in patent publication US20100004432, “APTAMER AGAINST MIDKINE AND USE THEREOF” (RIBOMIC INC., published 2010).

T1: midkine (full-length) (Homo sapiens, UniProt P21741 P21741:23-143)
T1 sequence: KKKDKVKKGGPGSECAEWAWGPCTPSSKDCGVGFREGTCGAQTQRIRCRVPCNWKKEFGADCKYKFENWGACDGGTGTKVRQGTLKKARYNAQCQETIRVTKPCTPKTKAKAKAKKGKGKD


Tests used:
midkine (full-length) [1] = molecular target: T1, midkine (full-length); test: cell_activity; conditions: 500 nM; control
midkine (full-length) [2] = molecular target: T1, midkine (full-length); test: cell_activity; UMR106 migration inhibition, 500 nM RNA; conditions: tags: expressed in yeast

Molecule | activity (% of SEQ 40 inhibition) (midkine (full-length) [1]) | activity (midkine (full-length) [2])
tRNA | 28 | 
GGGAGAGGAGAAGAGGAAGUGCACAGGGGUUGGUGUCGGGUGCAC (ssRNA, 2'-F pyrimidines; 2'-OMe all A in 5' single-stranded part and G in loop: agggg(M)u(F)u(F)g(M)g(M)u(F)g(M)u(F)c(F)) [SEQ ID NO:45-2] |  | 100 % of SEQ ID NO:40
GGGAGAGGAGAAGAGGAAGUGCACAGGGGUUGGUGUCGGGUGCAC (ssRNA, 2'-F pyrimidines; 2'-OMe all A in 5' single-stranded part and A, G in end stem: gu(F)g(M)c(F)a(M)c(F) and u(F)g(M)c(F)a(M)c(F)) [SEQ ID NO:45-4] |  | 100 % of SEQ ID NO:40
GGGAGAGGAGAAGAGGAAGUGCACAGGGGUUGGUGUCGGGUGCAC (ssRNA, 2'-F pyrimidines; 2'-OMe all A in 5' single-stranded part and A, G in internal loop: a(M)g(M)ggg and c(F)g(M)g(M)g) [SEQ ID NO:45-3] |  | 56 % of SEQ ID NO:40
